What all share (assay): cytokine release
Experiment [1] addresses T1, Human papillomavirus type 16 E7 protein peptide on HLA-A*02:01 (human).
T1 peptide: TLGIVCPI

Experiment [2] has as its target T2, Human papillomavirus type 16 E5 protein peptide on HLA-A*02:01 (human).
T2 peptide: YIIFVYIPL

In experiment [3] the target is T3, Human papillomavirus type 16 E6 protein peptide on HLA-A*02:01 (human).
T3 peptide: TIHDIILECV

B1: T7 (TCR, V domains shown)
Valpha: QQPVQSPQAVILREGEDAVINCSSSKALYSVHWYRQKHGEAPVFLMILLKGGEQKGHEKISASFNEKKQQSSLYLTASQLSYSGTYFCGTGTDSWGKLQFGAGTQVVVTP
Vbeta: DAGVIQSPRHEVTEMGQEVTLRCKPISGHDYLFWYRQTMMRGLELLIYFNNNVPIDDSGMPEDRFSAKMPNASFSTLKIQPSEPRDSAVYFCASSPGLAGGEQFFGPGTRLTVL
On to B1, for which the binding result in experiment [1] was “recognises”.

B2: T2 (TCR, V domains shown)
Valpha: QKEVEQNSGPLSVPEGAIASLNCTYSDRGSQSFFWYRQYSGKSPELIMSIYSNGDKEDGRFTAQLNKASQYVSLLIRDSQPSDSATYLCAVNVDFNKFYFGSGTKLNVKP
Vbeta: DTEVTQTPKHLVMGMTNKKSLKCEQHMGHRAMYWYKQKAKKPPELMFVYSYEKLSINESVPSRFSPECPNSSLLNLHLHALQPEDSALYLCASSQDWNNEQFFGPGTRLTVL
On to B2, for which the binding result in experiment [2] is “recognises”.

B3: T3 (TCR, V domains shown)
Valpha: EDQVTQSPEALRLQEGESSSLNCSYTVSGLRGLFWYRQDPGKGPEFLFTLYSAGEEKEKERLKATLTKKESFLHITAPKPEDSATYLCAVQANRGSTLGRLYFGRGTQLTVWP
Vbeta: DVKVTQSSRYLVKRTGEKVFLECVQDMDHENMFWYRQDPGLGLRLIYFSYDVKMKEKGDIPEGYSVSREKKERFSLILESASTNQTSMYLCASSLWGRLAKNIQYFGAGTRLSVL
Consider B3, for which the binding result in experiment [3] is on record as “recognises”.

B4: T5b (TCR, V domains shown)
Valpha: SQQGEEDPQALSIQEGENATMNCSYKTSINNLQWYRQNSGRGLVHLILIRSNEREKHSGRLRVTLDTSKKSSSLLITASRAADTASYFCATVSTDSWGKLQFGAGTQVVVTP
Vbeta: DVKVTQSSRYLVKRTGEKVFLECVQDMDHENMFWYRQDPGLGLRLIYFSYDVKMKEKGDIPEGYSVSREKKERFSLILESASTNQTSMYLCASSLWGRAGKDTQYFGPGTRLTVL
For B4, the binding result in experiment [3] is on record as “recognises”.

B5: T4 (TCR, V domains shown)
Valpha: KQEVTQIPAALSVPEGENLVLNCSFTDSAIYNLQWFRQDPGKGLTSLLLIQSSQREQTSGRLNASLDKSSGRSTLYIAASQPGDSATYLCAVRETSGSRLTFGEGTQLTVNP
Vbeta: DVKVTQSSRYLVKRTGEKVFLECVQDMDHENMFWYRQDPGLGLRLIYFSYDVKMKEKGDIPEGYSVSREKKERFSLILESASTNQTSMYLCASSFWGRSTDTQYFGPGTRLTVL
For the molecule B5, the binding result in experiment [3] is given as “recognises”.

B6: T5a (TCR, V domains shown)
Valpha: SQQGEEDPQALSIQEGENATMNCSYKTSINNLQWYRQNSGRGLVHLILIRSNEREKHSGRLRVTLDTSKKSSSLLITASRAADTASYFCATVSTDSWGKLQFGAGTQVVVTP
Vbeta: DAGITQSPRHKVTETGTPVTLRCHQTENHRYMYWYRQDPGHGLRLIHYSYGVKDTDKGEVSDGYSVSRSKTEDFLLTLESATSSQTSVYFCAISDSNGINIQYFGAGTRLSVL
With B6, the binding result in experiment [3] is given as “recognises”.

Source of the values: US20190062398A1 (published 2019).
